Residue numbers refer to the chain shown, from its start. One block for each molecule: values may come before it.
Key:
[1] = biological target: C183S FixK2 protein variant of Bradyrhizobium diazoefficiens (Bradyrhizobium diazoefficiens) (UniProt Q89RK6); assay: SEC; analytical SEC, Superdex 200 10/300 GL, room temperature, 40 mM Tris-HCl pH 7.0, 150 mM KCl, 0.1 mM EDTA; 100 µL samples loaded at 2.5-30 µM (native) or 2.5-40 µM (C183S, C183D); concentrations refer to the dimeric form; monomer-dimer equilibrium
[2] = biological target: C183D FixK2 protein variant of Bradyrhizobium diazoefficiens (Bradyrhizobium diazoefficiens) (UniProt Q89RK6); assay: as above
[3] = biological target: FixK2 protein (native, wild type) of Bradyrhizobium diazoefficiens (Bradyrhizobium diazoefficiens) (UniProt Q89RK6); assay: as above
[4] = biological target: T1, C183D FixK2 C183D (Bradyrhizobium diazoefficiens 110spc4) (UniProt O69245); assay: EMSA; settings: EMSA: 40 mM Tris-HCl pH 8, 10 mM MgCl2, 0.1 mM EDTA, 0.1 mM DTT, 150 mM KCl, 0.4 mM K3PO4, room temperature, 30 min; SPR: 40 mM Tris-HCl pH 7.0, 150 mM KCl …; scale: fold higher protein concentration than C183S for similar shift
T1 sequence: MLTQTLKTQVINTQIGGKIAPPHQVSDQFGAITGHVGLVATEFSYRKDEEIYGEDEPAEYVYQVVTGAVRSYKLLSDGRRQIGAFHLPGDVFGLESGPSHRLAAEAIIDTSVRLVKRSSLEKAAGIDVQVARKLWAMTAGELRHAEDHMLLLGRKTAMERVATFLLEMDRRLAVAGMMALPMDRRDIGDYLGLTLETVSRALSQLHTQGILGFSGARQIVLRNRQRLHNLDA

[5] = biological target: T2, C183S FixK2 C183S (Bradyrhizobium diazoefficiens 110spc4) (UniProt O69245); assay: EMSA; settings: EMSA: 40 mM Tris-HCl pH 8, 10 mM MgCl2, 0.1 mM EDTA, 0.1 mM DTT, 150 mM KCl, 0.4 mM K3PO4, room temperature, 30 min; SPR: 40 mM Tris-HCl pH 7.0, 150 mM KCl …
T2 sequence: T1 sequence with D183S

C183S FixK2 = biological target: T3, C183S FixK2 (Bradyrhizobium diazoefficiens 110spc4, UniProt O69245 1-232, C183S); assay: SPR; sensorgram at 250 nM; nanomolar affinity only cited from earlier study; EMSA: 40 mM Tris-HCl pH 8, 10 mM MgCl2, 0.1 mM EDTA, 0.1 mM DTT, 150 mM KCl, 0.4 mM K3PO4, room temperature, 30 min; SPR: 40 mM Tris-HCl pH 7.0, 150 mM KCl, 0.1 mM EDTA, 0.005% Tween 20, 25 °C; settings: protein: recombinant; tags: untagged after cleavage of C-terminal Mxe GyrA intein-CBD (IMPACT, pTXB1); chain copies: 2; label: biotin; blunt
T3 sequence: T1 sequence with D183S

Molecule: C183D FixK2 protein variant of Bradyrhizobium diazoefficiens (from UniProt Q89RK6 4-235) (natural protein)
- stoichiometry N [2]: 2

Molecule: fixNOQP promoter 90-bp PCR fragment
- binding signal [4]: 32

Molecule: AAGAACACAGCGCCAGAAACCACATTCACCCTCGCGGGGAATTGATTGAAATCAAGATAGGTGGATTTCTGTTAATGTGAGGCTTTCGCG (double strand) [fixNOQP promoter 90-bp PCR fragment]
- binding [5]: binds
- binding signal [4]: 32

B1: fixN_3 FixK2 box duplex (SPR) (dsDNA)
DNA 1: CCACCTATCTTGATTTCAATCAATTCCCCG
DNA 2: CGGGGAATTGATTGAAATCAAGATAGGTGG
modifications: 5'-biotin on reverse strand (S47)
- binding result (C183S FixK2): binds

Continued, values first:

- stoichiometry N [1]: 2
Molecule: C183S FixK2 protein variant of Bradyrhizobium diazoefficiens (from UniProt Q89RK6 4-235) (natural protein)

- stoichiometry N [3]: 2
Molecule: FixK2 protein (native, wild type) of Bradyrhizobium diazoefficiens (from UniProt Q89RK6 4-235) (natural protein)

— publication PMC9104804, “Fine-Tuning Modulation of Oxidation-Mediated Posttranslational Control of Bradyrhizobium diazoefficiens FixK2 Transcription Factor”
